Measurements as given in US20250304643A1 (BAINAN BIOTECH, published 2025).
*1 amine or outer side, *2 acyl side, *3 side chain or, on linkers, in order; H or OH if unused. Where no end group is shown, it is not given here. Side-chain parts run from the residue outwards. [ ]: non-standard residue; d: D form. The star is where a group is joined. C16 diacid = O=C(O)CCCCCCCCCCCCCCC(=O)*; γGlu = O=C(O)[C@H](CCC(=O)[*:2])N[*:1]; Decanoyl = CCCCCCCCCC(=O)*; Aib = CC(C)(N)C(=O)O

T1: human glucose-dependent insulinotropic polypeptide receptor (human, UniProt P48546 22-466)
T1 sequence (looked up): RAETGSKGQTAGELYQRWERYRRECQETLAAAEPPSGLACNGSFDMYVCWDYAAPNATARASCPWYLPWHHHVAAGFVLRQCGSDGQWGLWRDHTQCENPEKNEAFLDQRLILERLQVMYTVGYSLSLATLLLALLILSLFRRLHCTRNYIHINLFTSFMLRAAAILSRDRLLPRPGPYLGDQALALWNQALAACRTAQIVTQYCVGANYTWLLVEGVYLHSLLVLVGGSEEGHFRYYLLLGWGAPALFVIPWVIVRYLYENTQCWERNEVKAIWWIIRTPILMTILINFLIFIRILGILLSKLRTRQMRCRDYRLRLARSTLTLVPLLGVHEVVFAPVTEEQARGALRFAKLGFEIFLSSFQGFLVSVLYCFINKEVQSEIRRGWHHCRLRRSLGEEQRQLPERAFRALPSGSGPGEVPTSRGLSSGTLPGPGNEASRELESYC

T2: human glucagon-like peptide-2 receptor (human, UniProt O95838 1-553)
T2 sequence (looked up): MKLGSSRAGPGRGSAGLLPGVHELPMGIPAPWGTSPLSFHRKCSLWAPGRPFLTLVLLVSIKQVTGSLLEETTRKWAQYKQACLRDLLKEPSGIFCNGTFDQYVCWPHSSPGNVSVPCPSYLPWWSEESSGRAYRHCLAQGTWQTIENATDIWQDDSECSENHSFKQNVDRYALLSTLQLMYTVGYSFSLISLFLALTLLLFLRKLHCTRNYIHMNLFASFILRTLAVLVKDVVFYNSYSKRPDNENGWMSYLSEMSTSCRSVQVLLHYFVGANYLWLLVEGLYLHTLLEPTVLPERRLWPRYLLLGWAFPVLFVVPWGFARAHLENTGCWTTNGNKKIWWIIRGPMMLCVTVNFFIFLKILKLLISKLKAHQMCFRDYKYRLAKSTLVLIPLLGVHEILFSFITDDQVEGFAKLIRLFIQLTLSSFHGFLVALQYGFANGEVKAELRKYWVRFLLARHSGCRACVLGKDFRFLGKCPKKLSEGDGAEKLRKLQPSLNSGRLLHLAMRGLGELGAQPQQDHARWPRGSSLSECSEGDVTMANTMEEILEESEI

B1: Compound no. 23 (peptide)
peptide: {C16 diacid}-H[Aib]DGTFISDYST[Aib]LDKLAARDFINWLIETKITK-OH
SMILES: CC[C@H](C)[C@H](NC(=O)[C@H](Cc1ccccc1)NC(=O)[C@H](CC(=O)O)NC(=O)[C@H](CCCNC(=N)N)NC(=O)[C@H](C)NC(=O)[C@H](C)NC(=O)[C@H](CC(C)C)NC(=O)[C@H](CCCCN)NC(=O)[C@H](CC(=O)O)NC(=O)[C@H](CC(C)C)NC(=O)C(C)(C)NC(=O)[C@@H](NC(=O)[C@H](CO)NC(=O)[C@H](Cc1ccc(O)cc1)NC(=O)[C@H](CC(=O)O)NC(=O)[C@H](CO)NC(=O)[C@@H](NC(=O)[C@H](Cc1ccccc1)NC(=O)[C@@H](NC(=O)CNC(=O)[C@H](CC(=O)O)NC(=O)C(C)(C)NC(=O)[C@H](Cc1c[nH]cn1)NC(=O)CCCCCCCCCCCCCCC(=O)O)[C@@H](C)O)[C@@H](C)CC)[C@@H](C)O)C(=O)N[C@@H](CC(N)=O)C(=O)N[C@@H](Cc1c[nH]c2ccccc12)C(=O)N[C@@H](CC(C)C)C(=O)N[C@H](C(=O)N[C@@H](CCC(=O)O)C(=O)N[C@H](C(=O)N[C@@H](CCCCN)C(=O)N[C@H](C(=O)N[C@H](C(=O)N[C@@H](CCCCN)C(=O)O)[C@@H](C)O)[C@@H](C)CC)[C@@H](C)O)[C@@H](C)CC
B2: Compound no. 25 (peptide)
peptide: H[Aib]DGK([γGlu-C16 diacid])FISDYST[Aib]LDNLAARDFINWLIQTKITK-OH
modifications: N-terminus assumed
SMILES: CC[C@H](C)[C@H](NC(=O)[C@H](Cc1ccccc1)NC(=O)[C@H](CCCCNC(=O)CC[C@H](NC(=O)CCCCCCCCCCCCCCC(=O)O)C(=O)O)NC(=O)CNC(=O)[C@H](CC(=O)O)NC(=O)C(C)(C)NC(=O)[C@@H](N)Cc1c[nH]cn1)C(=O)N[C@@H](CO)C(=O)N[C@@H](CC(=O)O)C(=O)N[C@@H](Cc1ccc(O)cc1)C(=O)N[C@@H](CO)C(=O)N[C@H](C(=O)NC(C)(C)C(=O)N[C@@H](CC(C)C)C(=O)N[C@@H](CC(=O)O)C(=O)N[C@@H](CC(N)=O)C(=O)N[C@@H](CC(C)C)C(=O)N[C@@H](C)C(=O)N[C@@H](C)C(=O)N[C@@H](CCCNC(=N)N)C(=O)N[C@@H](CC(=O)O)C(=O)N[C@@H](Cc1ccccc1)C(=O)N[C@H](C(=O)N[C@@H](CC(N)=O)C(=O)N[C@@H](Cc1c[nH]c2ccccc12)C(=O)N[C@@H](CC(C)C)C(=O)N[C@H](C(=O)N[C@@H](CCC(N)=O)C(=O)N[C@H](C(=O)N[C@@H](CCCCN)C(=O)N[C@H](C(=O)N[C@H](C(=O)N[C@@H](CCCCN)C(=O)O)[C@@H](C)O)[C@@H](C)CC)[C@@H](C)O)[C@@H](C)CC)[C@@H](C)CC)[C@@H](C)O
B3: Compound no. 24 (peptide)
peptide: H[Aib]DGK([γGlu-Decanoyl])FISDYST[Aib]LDNLAARDFINWLIQTKITK-OH
modifications: N-terminus assumed
SMILES: CCCCCCCCCC(=O)N[C@@H](CCC(=O)NCCCC[C@H](NC(=O)CNC(=O)[C@H](CC(=O)O)NC(=O)C(C)(C)NC(=O)[C@@H](N)Cc1c[nH]cn1)C(=O)N[C@@H](Cc1ccccc1)C(=O)N[C@H](C(=O)N[C@@H](CO)C(=O)N[C@@H](CC(=O)O)C(=O)N[C@@H](Cc1ccc(O)cc1)C(=O)N[C@@H](CO)C(=O)N[C@H](C(=O)NC(C)(C)C(=O)N[C@@H](CC(C)C)C(=O)N[C@@H](CC(=O)O)C(=O)N[C@@H](CC(N)=O)C(=O)N[C@@H](CC(C)C)C(=O)N[C@@H](C)C(=O)N[C@@H](C)C(=O)N[C@@H](CCCNC(=N)N)C(=O)N[C@@H](CC(=O)O)C(=O)N[C@@H](Cc1ccccc1)C(=O)N[C@H](C(=O)N[C@@H](CC(N)=O)C(=O)N[C@@H](Cc1c[nH]c2ccccc12)C(=O)N[C@@H](CC(C)C)C(=O)N[C@H](C(=O)N[C@@H](CCC(N)=O)C(=O)N[C@H](C(=O)N[C@@H](CCCCN)C(=O)N[C@H](C(=O)N[C@H](C(=O)N[C@@H](CCCCN)C(=O)O)[C@@H](C)O)[C@@H](C)CC)[C@@H](C)O)[C@@H](C)CC)[C@@H](C)CC)[C@@H](C)O)[C@@H](C)CC)C(=O)O
B4: Compound no. 22 (peptide)
peptide: {C16 diacid}-H[Aib]DGTFISDYST[Aib]LDKLAARDFIEWLIQTKITK-OH
SMILES: CC[C@H](C)[C@H](NC(=O)[C@H](Cc1ccccc1)NC(=O)[C@H](CC(=O)O)NC(=O)[C@H](CCCNC(=N)N)NC(=O)[C@H](C)NC(=O)[C@H](C)NC(=O)[C@H](CC(C)C)NC(=O)[C@H](CCCCN)NC(=O)[C@H](CC(=O)O)NC(=O)[C@H](CC(C)C)NC(=O)C(C)(C)NC(=O)[C@@H](NC(=O)[C@H](CO)NC(=O)[C@H](Cc1ccc(O)cc1)NC(=O)[C@H](CC(=O)O)NC(=O)[C@H](CO)NC(=O)[C@@H](NC(=O)[C@H](Cc1ccccc1)NC(=O)[C@@H](NC(=O)CNC(=O)[C@H](CC(=O)O)NC(=O)C(C)(C)NC(=O)[C@H](Cc1c[nH]cn1)NC(=O)CCCCCCCCCCCCCCC(=O)O)[C@@H](C)O)[C@@H](C)CC)[C@@H](C)O)C(=O)N[C@@H](CCC(=O)O)C(=O)N[C@@H](Cc1c[nH]c2ccccc12)C(=O)N[C@@H](CC(C)C)C(=O)N[C@H](C(=O)N[C@@H](CCC(N)=O)C(=O)N[C@H](C(=O)N[C@@H](CCCCN)C(=O)N[C@H](C(=O)N[C@H](C(=O)N[C@@H](CCCCN)C(=O)O)[C@@H](C)O)[C@@H](C)CC)[C@@H](C)O)[C@@H](C)CC
B5: Compound no. 20 (peptide)
peptide: {C16 diacid}-H[Aib]DGTFISDYST[Aib]LDALAARDFIEWLIQTKITK-OH
SMILES: CC[C@H](C)[C@H](NC(=O)[C@H](Cc1ccccc1)NC(=O)[C@H](CC(=O)O)NC(=O)[C@H](CCCNC(=N)N)NC(=O)[C@H](C)NC(=O)[C@H](C)NC(=O)[C@H](CC(C)C)NC(=O)[C@H](C)NC(=O)[C@H](CC(=O)O)NC(=O)[C@H](CC(C)C)NC(=O)C(C)(C)NC(=O)[C@@H](NC(=O)[C@H](CO)NC(=O)[C@H](Cc1ccc(O)cc1)NC(=O)[C@H](CC(=O)O)NC(=O)[C@H](CO)NC(=O)[C@@H](NC(=O)[C@H](Cc1ccccc1)NC(=O)[C@@H](NC(=O)CNC(=O)[C@H](CC(=O)O)NC(=O)C(C)(C)NC(=O)[C@H](Cc1c[nH]cn1)NC(=O)CCCCCCCCCCCCCCC(=O)O)[C@@H](C)O)[C@@H](C)CC)[C@@H](C)O)C(=O)N[C@@H](CCC(=O)O)C(=O)N[C@@H](Cc1c[nH]c2ccccc12)C(=O)N[C@@H](CC(C)C)C(=O)N[C@H](C(=O)N[C@@H](CCC(N)=O)C(=O)N[C@H](C(=O)N[C@@H](CCCCN)C(=O)N[C@H](C(=O)N[C@H](C(=O)N[C@@H](CCCCN)C(=O)O)[C@@H](C)O)[C@@H](C)CC)[C@@H](C)O)[C@@H](C)CC
B6: Compound no. 21 (peptide)
peptide: {C16 diacid}-H[Aib]EGTFISDYST[Aib]LDKLAARDFINWLIQTKITK-OH
SMILES: CC[C@H](C)[C@H](NC(=O)[C@H](Cc1ccccc1)NC(=O)[C@H](CC(=O)O)NC(=O)[C@H](CCCNC(=N)N)NC(=O)[C@H](C)NC(=O)[C@H](C)NC(=O)[C@H](CC(C)C)NC(=O)[C@H](CCCCN)NC(=O)[C@H](CC(=O)O)NC(=O)[C@H](CC(C)C)NC(=O)C(C)(C)NC(=O)[C@@H](NC(=O)[C@H](CO)NC(=O)[C@H](Cc1ccc(O)cc1)NC(=O)[C@H](CC(=O)O)NC(=O)[C@H](CO)NC(=O)[C@@H](NC(=O)[C@H](Cc1ccccc1)NC(=O)[C@@H](NC(=O)CNC(=O)[C@H](CCC(=O)O)NC(=O)C(C)(C)NC(=O)[C@H](Cc1c[nH]cn1)NC(=O)CCCCCCCCCCCCCCC(=O)O)[C@@H](C)O)[C@@H](C)CC)[C@@H](C)O)C(=O)N[C@@H](CC(N)=O)C(=O)N[C@@H](Cc1c[nH]c2ccccc12)C(=O)N[C@@H](CC(C)C)C(=O)N[C@H](C(=O)N[C@@H](CCC(N)=O)C(=O)N[C@H](C(=O)N[C@@H](CCCCN)C(=O)N[C@H](C(=O)N[C@H](C(=O)N[C@@H](CCCCN)C(=O)O)[C@@H](C)O)[C@@H](C)CC)[C@@H](C)O)[C@@H](C)CC

These binders were tested against T1, human glucose-dependent insulinotropic … (assay: cell-based or functional assay).

Binder	Efficacy GIPR [%]
B1	107
B2	93
B3	113
B4	91
B5	93
B6	86

The binders below were run against T2, human glucagon-like peptide-2 receptor (assay: cell-based or functional assay).

Binder	Efficacy GLP-2R [%]	logEC50 GLP-2R
B1	86	8.8
B2	88	9
B3	90	
B4	95	
B5	88	
B6	58	
